{"source": "paper PMC11243334", "about": "“Synthesis and Evaluation of the First ^68Ga-Labeled C-Terminal Hydroxamate-Derived Gastrin-Releasing Peptide Receptor-Targeted Tracers for Cancer Imaging with Positron Emission Tomography” (Molecules, 2024)", "key": {"physchem": {"test": "physchem", "details": "n-octanol/DPBS, pH 7.4", "description": "LogD7.4 values of [^68Ga]Ga-LW02075, [^68Ga]Ga-LW02050, and [^68Ga]Ga-SB3 were measured via the shake flask method. An aliquot of the ^68Ga-labeled tracer (~1.85 MBq) was added to a 15 mL falcon tube containing 3 mL of n-octanol and 3 mL of DPBS (pH 7.4) followed by 1 min of vortex (n = 3). After that, the mixture was centrifuged at 5000 rpm for 10 min, and samples of the n-octanol (1 mL) and buffer (1 mL) layers were collected and counted on a Perkin Elmer (Waltham, MA, USA) Wizard2 2480 automatic gamma counter. The LogD7.4 values of [^68Ga]Ga-LW02075, [^68Ga]Ga-LW02050, and [^68Ga]Ga-SB3 were calculated following the equation: LogD7.4 = log10[(counts in the n-octanol phase)/(counts in the buffer phase)]."}, "[1]": {"test": "Ex vivo biodistribution in PC-3 tumor-bearing mice", "details": "male, mouse, iv, total radioactivity, mean ± SD, n = 4; for tissue uptake at 1 h: NOD.Cg-Rag1^tm1Mom Il2rg^tm1Wjl/SzJ (NRG); for tissue to tissue ratio at 1 h: NOD.Cg-Rag1tm1Mom Il2rgtm1Wjl/SzJ (NRG)", "description": "(§1) Biodistribution studies were conducted for ^68Ga-labeled SB3, LW02075 and LW02050 in PC-3 tumor-bearing mice (n = 4).\n(§2) Imaging and biodistribution studies were performed on male NOD.Cg-Rag1^tm1Mom Il2rg^tm1Wjl/SzJ (NRG) mice following previously published procedures. The experiments were conducted following the guidelines established by the Canadian Council on Animal Care and approved by Animal Ethics Committee of the University of British Columbia. The mice were sedated (2.5% isoflurane in oxygen) and injected with 5 × 10^6 PC-3 cells (100 µL; 1:1 PBS/Matrigel) subcutaneously behind the left shoulder. The tumor-bearing mice were used for PET/CT imaging and biodistribution studies when the tumor grew to 5–8 mm in diameter.\n(§3) For biodistribution studies, the mice were injected with the radiotracer (~2–4 MBq), as described above. Blocking of [^68Ga]Ga-LW02075 and [^68Ga]Ga-LW02050 was conducted by co-injection with 100 μg nonradioactive Ga-LW02075 and Ga-LW02050, respectively, through a lateral caudal tail vein under anaesthesia. At 1 h post injection, the mice were sedated and euthanized by CO2 inhalation. Blood was collected via cardiac puncture, and organs/tissues of interest were collected, weighed, and counted on a Perkin Elmer (Waltham, MA, USA) Wizard2 2480 automatic gamma counter."}, "PC-3 tumor-bearing mice": {"tested_on": "PC-3 tumor-bearing mice", "test": "Ex vivo biodistribution in PC-3 tumor-bearing mice", "details": "1 h post injection, 100 μg nonradioactive standard co-injected", "description": "as §1, §2, §3"}, "PC-3 tumor xenografts": {"tested_on": "PC-3 tumor xenografts", "test": "PET/CT imaging in mice bearing PC-3 tumor xenografts", "type": "in vivo", "details": "1 h post injection", "description": "as §2\nPET/CT imaging experiments were performed on a Siemens (Knoxville, TN, USA) Inveon micro PET/CT scanner. Each tumor-bearing mouse was injected with ~3–6 MBq of ^68Ga-labeled tracer through a lateral caudal tail vein under anaesthesia. At around 50 min post injection, a 10 min CT scan was obtained first for localization and attenuation correction after segmentation for reconstructing the PET image, followed by a 10 min static PET scan."}}, "note": "Like-named read-outs stand apart in the source and are kept apart here.", "data": [{"smiles": "CC(C)C[C@H](NC(=O)[C@H](Cc1c[nH]cn1)NC(=O)CNC(=O)[C@@H](NC(=O)[C@H](C)NC(=O)[C@H](Cc1c[nH]c2ccccc12)NC(=O)[C@H](CCC(N)=O)NC(=O)[C@@H](Cc1ccccc1)NC(=O)CN1CCC(NC(=O)CN2CCN(CC(=O)O)CCN(CC(=O)O)CCN(CC(=O)O)CC2)CC1)C(C)C)C(=O)NO", "note": "[[^68Ga]Ga-LW02050, [^68Ga]Ga-DOTA-Pip-D-Phe-Gln-Trp-Ala-Val-Gly-His-Leu-NHOH, metal not drawn]", "values": [{"measurement": "logD", "setting": "physchem", "result": "-2.3 ± 0.14"}, {"measurement": "tissue uptake at 1 h", "setting": "[1]; PC-3 tumor, 1 h blocked: co-injected with 100 µg nonradioactive Ga-complexed standard, read-out: PC-3 tumor uptake, blocked", "result": "0.42 ± 0.08", "unit": "%ID/g"}, {"measurement": "tissue uptake at 1 h", "setting": "[1]; PC-3 tumor, 1 h post injection, read-out: PC-3 tumor uptake", "result": "5.38 ± 1", "unit": "%ID/g"}, {"measurement": "tissue uptake at 1 h", "setting": "[1]; adrenal glands, 1 h blocked: co-injected with 100 µg nonradioactive Ga-complexed standard, read-out: Adrenal glands uptake, blocked", "result": "0.05 ± 0.05", "unit": "%ID/g"}, {"measurement": "tissue uptake at 1 h", "setting": "[1]; adrenal glands, 1 h post injection, read-out: Adrenal glands uptake", "result": "0.43 ± 0.15", "unit": "%ID/g"}, {"measurement": "tissue uptake at 1 h", "setting": "[1]; blood, 1 h blocked: co-injected with 100 µg nonradioactive Ga-complexed standard, read-out: Blood uptake, blocked", "result": "0.34 ± 0.06", "unit": "%ID/g"}, {"measurement": "tissue uptake at 1 h", "setting": "[1]; blood, 1 h post injection, read-out: Blood uptake", "result": "0.57 ± 0.11", "unit": "%ID/g"}, {"measurement": "tissue uptake at 1 h", "setting": "[1]; bone, 1 h blocked: co-injected with 100 µg nonradioactive Ga-complexed standard, read-out: Bone uptake, blocked", "result": "0.03 ± 0.03", "unit": "%ID/g"}, {"measurement": "tissue uptake at 1 h", "setting": "[1]; bone, 1 h post injection, read-out: Bone uptake", "result": "0.14 ± 0.06", "unit": "%ID/g"}, {"measurement": "tissue uptake at 1 h", "setting": "[1]; brain, 1 h blocked: co-injected with 100 µg nonradioactive Ga-complexed standard, read-out: Brain uptake, blocked", "result": 0.01, "unit": "%ID/g"}, {"measurement": "tissue uptake at 1 h", "setting": "[1]; brain, 1 h post injection, read-out: Brain uptake", "result": "0.03 ± 0.01", "unit": "%ID/g"}, {"measurement": "tissue uptake at 1 h", "setting": "[1]; fat, 1 h blocked: co-injected with 100 µg nonradioactive Ga-complexed standard, read-out: Fat uptake, blocked", "result": "0.04 ± 0.01", "unit": "%ID/g"}, {"measurement": "tissue uptake at 1 h", "setting": "[1]; fat, 1 h post injection, read-out: Fat uptake", "result": "0.05 ± 0.01", "unit": "%ID/g"}, {"measurement": "tissue uptake at 1 h", "setting": "[1]; heart, 1 h blocked: co-injected with 100 µg nonradioactive Ga-complexed standard, read-out: Heart uptake, blocked", "result": "0.1 ± 0.02", "unit": "%ID/g"}, {"measurement": "tissue uptake at 1 h", "setting": "[1]; heart, 1 h post injection, read-out: Heart uptake", "result": "0.19 ± 0.03", "unit": "%ID/g"}, {"measurement": "tissue uptake at 1 h", "setting": "[1]; kidneys, 1 h blocked: co-injected with 100 µg nonradioactive Ga-complexed standard, read-out: Kidneys uptake, blocked", "result": "1.95 ± 0.44", "unit": "%ID/g"}, {"measurement": "tissue uptake at 1 h", "setting": "[1]; kidneys, 1 h post injection, read-out: Kidneys uptake", "result": "2.88 ± 0.68", "unit": "%ID/g"}, {"measurement": "tissue uptake at 1 h", "setting": "[1]; large intestine, 1 h blocked: co-injected with 100 µg nonradioactive Ga-complexed standard, read-out: Large intestine uptake, blocked", "result": "0.19 ± 0.17", "unit": "%ID/g"}, {"measurement": "tissue uptake at 1 h", "setting": "[1]; large intestine, 1 h post injection, read-out: Large intestine uptake", "result": "0.34 ± 0.15", "unit": "%ID/g"}, {"measurement": "tissue uptake at 1 h", "setting": "[1]; liver, 1 h blocked: co-injected with 100 µg nonradioactive Ga-complexed standard, read-out: Liver uptake, blocked", "result": "0.29 ± 0.2", "unit": "%ID/g"}, {"measurement": "tissue uptake at 1 h", "setting": "[1]; liver, 1 h post injection, read-out: Liver uptake", "result": "0.44 ± 0.05", "unit": "%ID/g"}, {"measurement": "tissue uptake at 1 h", "setting": "[1]; lungs, 1 h blocked: co-injected with 100 µg nonradioactive Ga-complexed standard, read-out: Lungs uptake, blocked", "result": "0.33 ± 0.09", "unit": "%ID/g"}, {"measurement": "tissue uptake at 1 h", "setting": "[1]; lungs, 1 h post injection, read-out: Lungs uptake", "result": "0.55 ± 0.06", "unit": "%ID/g"}, {"measurement": "tissue uptake at 1 h", "setting": "[1]; muscle, 1 h blocked: co-injected with 100 µg nonradioactive Ga-complexed standard, read-out: Muscle uptake, blocked", "result": "0.06 ± 0.02", "unit": "%ID/g"}, {"measurement": "tissue uptake at 1 h", "setting": "[1]; muscle, 1 h post injection, read-out: Muscle uptake", "result": "0.13 ± 0.02", "unit": "%ID/g"}, {"measurement": "tissue uptake at 1 h", "setting": "[1]; pancreas, 1 h blocked: co-injected with 100 µg nonradioactive Ga-complexed standard, read-out: Pancreas uptake, blocked", "result": "0.1 ± 0.03", "unit": "%ID/g"}, {"measurement": "tissue uptake at 1 h", "setting": "[1]; pancreas, 1 h post injection, read-out: Pancreas uptake", "result": "0.53 ± 0.11", "unit": "%ID/g"}, {"measurement": "tissue uptake at 1 h", "setting": "[1]; small intestine, 1 h blocked: co-injected with 100 µg nonradioactive Ga-complexed standard, read-out: Small intestine uptake, blocked", "result": "0.26 ± 0.09", "unit": "%ID/g"}, {"measurement": "tissue uptake at 1 h", "setting": "[1]; small intestine, 1 h post injection, read-out: Small intestine uptake", "result": "0.43 ± 0.04", "unit": "%ID/g"}, {"measurement": "tissue uptake at 1 h", "setting": "[1]; spleen, 1 h blocked: co-injected with 100 µg nonradioactive Ga-complexed standard, read-out: Spleen uptake, blocked", "result": "0.12 ± 0.02", "unit": "%ID/g"}, {"measurement": "tissue uptake at 1 h", "setting": "[1]; spleen, 1 h post injection, read-out: Spleen uptake", "result": "0.25 ± 0.04", "unit": "%ID/g"}, {"measurement": "tissue uptake at 1 h", "setting": "[1]; stomach, 1 h blocked: co-injected with 100 µg nonradioactive Ga-complexed standard, read-out: Stomach uptake, blocked", "result": "0.04 ± 0.02", "unit": "%ID/g"}, {"measurement": "tissue uptake at 1 h", "setting": "[1]; stomach, 1 h post injection, read-out: Stomach uptake", "result": "0.34 ± 0.14", "unit": "%ID/g"}, {"measurement": "tissue uptake at 1 h", "setting": "[1]; testes, 1 h blocked: co-injected with 100 µg nonradioactive Ga-complexed standard, read-out: Testes uptake, blocked", "result": "0.13 ± 0.05", "unit": "%ID/g"}, {"measurement": "tissue uptake at 1 h", "setting": "[1]; testes, 1 h post injection, read-out: Testes uptake", "result": "0.17 ± 0.05", "unit": "%ID/g"}, {"measurement": "tissue to tissue ratio at 1 h", "setting": "[1]; tumor and bone, 1 h blocked: co-injected with 100 µg nonradioactive Ga-complexed standard, read-out: Tumor/bone uptake ratio, blocked", "result": "27.1 ± 18.1"}, {"measurement": "tissue to tissue ratio at 1 h", "setting": "[1]; tumor and bone, 1 h post injection, read-out: Tumor/bone uptake ratio", "result": "43.6 ± 22.6"}, {"measurement": "tissue to tissue ratio at 1 h", "setting": "[1]; tumor and kidney, 1 h blocked: co-injected with 100 µg nonradioactive Ga-complexed standard, read-out: Tumor/kidney uptake ratio, blocked", "result": "0.22 ± 0.05"}, {"measurement": "tissue to tissue ratio at 1 h", "setting": "[1]; tumor and kidney, 1 h post injection, read-out: Tumor/kidney uptake ratio", "result": "1.92 ± 0.41"}, {"measurement": "tissue to tissue ratio at 1 h", "setting": "[1]; tumor and muscle, 1 h blocked: co-injected with 100 µg nonradioactive Ga-complexed standard, read-out: Tumor/muscle uptake ratio, blocked", "result": "8.28 ± 2.7"}, {"measurement": "tissue to tissue ratio at 1 h", "setting": "[1]; tumor and muscle, 1 h post injection, read-out: Tumor/muscle uptake ratio", "result": "44.4 ± 14.1"}, {"measurement": "tissue to tissue ratio at 1 h", "setting": "[1]; tumor and pancreas, 1 h blocked: co-injected with 100 µg nonradioactive Ga-complexed standard, read-out: Tumor/pancreas uptake ratio, blocked", "result": "4.3 ± 0.83"}, {"measurement": "tissue to tissue ratio at 1 h", "setting": "[1]; tumor and pancreas, 1 h post injection, read-out: Tumor/pancreas uptake ratio", "result": "10.7 ± 4.17"}, {"measurement": "tissue to tissue ratio at 1 h", "setting": "[1]; tumor and whole blood, 1 h blocked: co-injected with 100 µg nonradioactive Ga-complexed standard, read-out: Tumor/blood uptake ratio, blocked", "result": "1.23 ± 0.14"}, {"measurement": "tissue to tissue ratio at 1 h", "setting": "[1]; tumor and whole blood, 1 h post injection, read-out: Tumor/blood uptake ratio", "result": "9.68 ± 2.84"}, {"measurement": "Reduction of average pancreas uptake by co-injection of nonradioactive standard", "setting": "PC-3 tumor-bearing mice", "result": 81, "unit": "%"}, {"measurement": "Reduction of average uptake in PC-3 tumor xenografts by co-injection of nonradioactive standard", "setting": "PC-3 tumor-bearing mice", "result": 92, "unit": "%"}, {"measurement": "Uptake in PC-3 tumor xenograft in PET image with blocking", "setting": "PC-3 tumor xenografts; co-injection with 100 μg nonradioactive standard", "result": "close to the background level"}, {"measurement": "Excretion pathway in PET images", "setting": "PC-3 tumor xenografts; mice", "result": "excreted primarily through the renal pathway"}, {"measurement": "Pancreas in PET images", "setting": "PC-3 tumor xenografts; mice", "result": "nearly invisible"}, {"measurement": "Visualization of PC-3 tumor xenografts in PET images", "setting": "PC-3 tumor xenografts; ~3–6 MBq i.v., mice", "result": "clearly visualized"}]}]}
